According to paper PMC8989531 (Nucleic Acids Research, 2022):

T1: RecD2-His (Bacillus subtilis RecD2 helicase with C-terminal His tag) (B. subtilis, UniProt O34481 1-798)
T1 sequence (looked up): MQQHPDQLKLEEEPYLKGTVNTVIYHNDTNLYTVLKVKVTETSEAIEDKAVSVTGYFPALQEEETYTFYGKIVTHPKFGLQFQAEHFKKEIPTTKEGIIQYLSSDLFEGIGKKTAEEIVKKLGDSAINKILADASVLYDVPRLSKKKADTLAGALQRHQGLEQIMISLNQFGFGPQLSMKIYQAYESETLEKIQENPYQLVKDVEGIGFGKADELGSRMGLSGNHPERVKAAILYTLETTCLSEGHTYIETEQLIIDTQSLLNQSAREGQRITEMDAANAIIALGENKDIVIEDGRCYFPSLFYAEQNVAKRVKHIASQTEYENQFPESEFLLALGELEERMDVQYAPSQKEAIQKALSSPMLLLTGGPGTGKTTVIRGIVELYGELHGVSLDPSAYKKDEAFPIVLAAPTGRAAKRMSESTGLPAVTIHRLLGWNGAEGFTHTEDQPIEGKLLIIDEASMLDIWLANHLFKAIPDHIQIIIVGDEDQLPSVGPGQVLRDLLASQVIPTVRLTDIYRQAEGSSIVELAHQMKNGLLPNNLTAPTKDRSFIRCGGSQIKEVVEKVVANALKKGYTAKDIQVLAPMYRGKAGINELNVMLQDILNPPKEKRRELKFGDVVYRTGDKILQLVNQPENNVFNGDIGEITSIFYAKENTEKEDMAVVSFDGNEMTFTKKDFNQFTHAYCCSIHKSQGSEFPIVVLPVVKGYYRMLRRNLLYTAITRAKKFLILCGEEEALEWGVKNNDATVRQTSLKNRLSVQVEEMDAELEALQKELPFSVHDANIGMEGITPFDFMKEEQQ


Target: T1, RecD2-His (Bacillus subtilis RecD2 …)
Assay: far-Western, overlay or dot blot

| Binder | binding result |
| --- | --- |
| SsbA (Bacillus subtilis single-stranded DNA binding protein) (natural protein, B. subtilis, UniProt P37455 1-172, looked up) MLNRVVLVGRLTKDPELRYTPNGAAVATFTLAVNRTFTNQSGEREADFINCVTWRRQAENVANFLKKGSLAGVDGRLQTRNYENQQGQRVFVTEVQAESVQFLEPKNGGGSGSGGYNEGNSGGGQYFGGGQNDNPFGGNQNNQRRNQGNSFNDDPFANDGKPIDISDDDLPF | binds |
| RecA (Bacillus subtilis recombinase) (natural protein, B. subtilis, UniProt P16971 1-348, looked up) MSDRQAALDMALKQIEKQFGKGSIMKLGEKTDTRISTVPSGSLALDTALGIGGYPRGRIIEVYGPESSGKTTVALHAIAEVQQQGGQAAFIDAEHALDPVYAQKLGVNIEELLLSQPDTGEQALEIAEALVRSGAVDIVVVDSVAALVPKAEIEGDMGDSHVGLQARLMSQALRKLSGAINKSKTIAIFINQIREKVGVMFGNPETTPGGRALKFYSSVRLEVRRAEQLKQGNDVMGNKTKIKVVKNKVAPPFRTAEVDIMYGEGISKEGEIIDLGTELDIVQKSGSWYSYEEERLGQGRENAKQFLKENKDIMLMIQEQIREHYGLDNNGVVQQQAEETQEELEFEE | binds |
